Assay results as given in article PMC11840039.
Like-named read-outs stand apart in the source and are kept apart here.

Columns and labels:
Assay in all cases: cryo-EM structure
[1] = molecular target: Human Slo1 (hSlo1), BK channel α subunit, residues 1-1056 (human)
[2] = molecular target: Human Slo1 (hSlo1), BK channel α subunit, residues 1-1056 (human); remark: listed apart in the source
[3] = molecular target: Human Slo1 (hSlo1), BK channel α subunit, residues 1-1056 (human); remark: listed apart in the source
[4] = molecular target: Human Slo1 (hSlo1), BK channel α subunit, residues 1-1056 (human); remark: listed apart in the source

Measured: stoichiometry N

Human Slo1 (hSlo1), BK channel α subunit, residues 1-1056 (natural protein)
4: all assays above
